One molecule from publication PMC10138814 can be followed below.

Test [1] addresses mCherry-LaM1 complex (llama). Description: ITC; 100 uM nanobody in the syringe into 10 uM mCherry (or 8.9 uM mCherry-LaM1 or mCherry-LaM3 complex) in the cell; 25 °C; one set of sites. In general terms: Isothermal titration calorimetry measures the heat released or taken up as one component is titrated into another.
For test [2], the target named is mCherry-LaM3 complex (llama). Described as above.

B1: LaM8 (VHH)
VHH: QVQLVESGGGLVQAGGSLRLSCAVSGRPFSEYNLGWFRQAPGKEREFVARIRSSGTTVYTDSVKGRFSASRDNAKNMGYLQLNSLEPEDTAVYYCAMSRVDTDSPAFYDYWGQGTQVTVST
As for B1, in test [1], the dissociation constant (Kd) (commonly the free concentration of one partner at which half of the binding sites on the other are occupied at equilibrium, for simple one-to-one binding) worked out at 54 nM; the dH is -10.3 kcal/mol; the stoichiometry N (in general, a count of units in the complex or per binding partner) was found to be 0.854 sites. In test [2], this molecule displayed an equilibrium dissociation constant (Kd) of 236 nM, a dH of -9.99 kcal/mol and a stoichiometry N of 0.799 sites.
